This is an account of results in publication PMC3628515 (The Journal of Cell Biology, 2013).

For this assay, the target named is T1, FAP100-HA (FAP100/Mia1p with a triple HA tag, in the rescued strain mia1R) (C. reinhardtii, UniProt A8I4E9 1-576).
T1 sequence (looked up): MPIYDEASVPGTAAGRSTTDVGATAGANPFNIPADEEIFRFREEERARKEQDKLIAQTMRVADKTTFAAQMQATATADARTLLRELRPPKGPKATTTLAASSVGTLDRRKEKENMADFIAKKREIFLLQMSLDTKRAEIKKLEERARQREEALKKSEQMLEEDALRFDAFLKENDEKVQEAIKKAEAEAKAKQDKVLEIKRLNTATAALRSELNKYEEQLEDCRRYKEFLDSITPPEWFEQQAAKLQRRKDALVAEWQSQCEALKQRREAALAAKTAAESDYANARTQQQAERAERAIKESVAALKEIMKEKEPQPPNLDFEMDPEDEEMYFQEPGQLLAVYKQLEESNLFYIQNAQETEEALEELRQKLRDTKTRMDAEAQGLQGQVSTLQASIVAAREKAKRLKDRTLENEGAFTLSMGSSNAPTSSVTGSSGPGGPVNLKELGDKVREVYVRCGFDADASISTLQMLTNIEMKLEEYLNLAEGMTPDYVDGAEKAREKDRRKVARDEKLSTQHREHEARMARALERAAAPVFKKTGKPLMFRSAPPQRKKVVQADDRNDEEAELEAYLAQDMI
Briefly: affinity purification with mass spectrometry.

B1: FAP73 (Mia2p), endogenous (natural protein, UniProt M1V4Y8 1-308, looked up)
chain: MDEEGSATARAKMMPQTLVLDHVSPATRLLEKRRQMFEVQEALEAQKQDFNRKEEVFKRREEALKLKDLELQESLIRFSKFLQENDSKRARAEKKANDEIKARIQKEKEIEQLTEVLEELKSEKERILEVLEKNMRYQHYLESVLEVADEYQEVADLLLRHATLSATNADLKDHQRKCSELAEKVRTELQIYVKQKTDEILNLNNQVAKLKTELEGYEAEAMVQEAKKDSSLQIASQRTLEYGQVVLSADNIFNRCRSKSSIGHPAESNPLHQLDVIGNFVSDLGSIIKQFKQEQAKRASLASRAEIE
By stoichiometry N is commonly meant a count of units in the complex or per binding partner. Consider B1, for which the “stoichiometry N” value was 1.83 to 2.89 FAP73 per FAP100.
